Blank lines part the entries; values can stand above or below the binder they belong to. Starred links: 1 amine or outer side, 2 acyl side, 3 side chain; linkers in the order of their positions; H or OH if unused. Positions of bridges follow the written chain, without caps; N, C: chain ends. Primed or numbered codes have the meaning given here. No end group written: not given here. *: point of attachment. mClBz(3) = 3-(chloromethyl)benzoic acid, non-amino acid initiator forming a thioether with the C-terminal-region Cys, O=C(c1cccc(C[*:3])c1)[*:2]; mClBz(4) = 3-(chloromethyl)benzoic acid initiator, its benzyl thioether with a Cys side chain closes the ring, O=C(c1cccc(C[*:3])c1)[*:2]; mClBz = N-terminal group cyclised as a benzyl thioether to a Cys, O=C(c1cccc(C[*:3])c1)[*:2]; C10F9 = S-aryl group from decafluorobiphenyl, Fc1c(F)c(F)c(-c2c(F)c(F)c(*)c(F)c2F)c(F)c1F; C6F5 = pentafluorophenyl group on the Cys sulfur, Fc1c(F)c(F)c(*)c(F)c1F
Legend:
[1] = target: T1, Lys48-linked Tetra-Ub (UniProt P0CG47 1-76, isopeptide bonds between the C-terminal Gly and Lys48 of successive Ub units); assay: fluorescence-based assay of relative binding on Lys48-linked Tetra-Ub, normalised to Ub4_ix; the labelled competitor is not named [panel headed '(iv) Binding of 1 and 2 against Lys48 Tetra-Ub as a target' (v) of the legend]
T1 construct: mature

[2] = target: T2, biotinylated-Lys63 linked Di-Ub (UniProt P0CG47 1-76, isopeptide bond between the C-terminal Gly of the distal Ub and Lys63 of the proximal Ub; biotin tag at the N-terminus of the distal Ub); assay: fluorescence-based competitive assay: unlabeled peptide, 5.0 molar equiv., pre-bound to biotinylated Lys63-linked Di-Ub on a streptavidin plate, then competed with CP1-FITC (1 equiv.); signal change relative to 1 (CP1), Y=[1-(a/b)]x100
T2 construct: mature; Immobilised on streptavidin plates or on the SPR CAPture chip; also called K63-linked Di-Ub; biotin-Lys63 linked Di-Ub
Experimental: Streptavidin-coated microplate (96 well plate) was washed with HEPES buffer (50 Mm HEPES, 150 Mm NaCl, pH 7.30) and then in each well incubated 1 μg of biotinylated-Lys63-linked Di-Ub in 100 μl of the same buffer at RT. for 30 min. Additional wells were kept without biotinylated-Lys63-Di-Ub for blank subtraction. After the washing step, peptide standard (CP1) and unlabeled peptides were incubated (5.0 molar equivalent relative to biotin-Lys63-linked Di-Ub) at RT for 30 minutes for saturation binding to the target. Then 1 molar equivalent of FITC labeled peptide-standard (CP1-FITC) relative to biotinylated-Lys63-linked Di-Ub was incubated to compete with unlabeled peptides at RT for 30 min. After releasing bounded peptides on treatment with 6 M Guanidinium chloride (Gnd·HCl), the fluorescence values were measured (λex=480 nm and λem=525 nm). These values were normalized and then calculated the relative change in binding with the following formula:
Y=[1−(a/b)]×100 [0289] Where Y=Signal change relative to the standard (CP1) (in terms of %). [0290] a=Measured signal value of each peptide candidate (in Relative Fluorescence Units). [0291] b=Measured signal value of standard peptide (CP1). The dissociation constant (KD) of fluorescein-labeled peptide (CP1-FITC) was calculated in accordance with the literature procedure (Vamisetti G B et al., 2021).

[3] = target: T3, Lys48-linked Di-Ub (UniProt P0CG47 1-76, isopeptide bond between the C-terminal Gly of one Ub and Lys48 of the other); assay: fluorescence-based assay of relative binding on Lys48-linked Di-Ub, normalised to mJ08-L8W; the labelled competitor is not named [iv]
T3 construct: mature

[4] = target: T2, biotinylated-Lys63 linked Di-Ub; assay: SPR (BIACORE T100), biotinylated Lys63 Di-Ub on a CAPture chip
Experimental: The binding of cyclic peptide 1 (CP1) against the target, Lys63 linked Di-Ub was determined using BIACORE T100 instrument (GE Healthcare) equipped with a biotin CAPture kit series S chip. 50 mM HEPES (pH=7.30, 150 mM NaCl, 0.05% Tween 20, 2.0 mM DTT, 0.2% DMSO) was used as buffer. Biotinylated-Lys63 linked Di-Ub was loaded on the SPR chip. By using various concentrations of peptide.

Binder: mClBz-CLIWIGSSKNPYILCG (bridge N-15; not fully specified (C-terminus, bridges), also called CP2) [cyclic peptide 2 (CP1-L1C)]
- binding result [1]: binds
- binding result [2]: binds
- binding result [3]: binds

B1: cyclic peptide 1 (CP1) (peptide)
peptide: {mClBz(4)}-LLIWIGSSKNPYILCG-NH2
modifications: thioether N-15
SMILES: CC[C@H](C)[C@@H]1NC(=O)[C@H](Cc2c[nH]c3ccccc23)NC(=O)[C@H]([C@@H](C)CC)NC(=O)[C@H](CC(C)C)NC(=O)[C@H](CC(C)C)NC(=O)c2cccc(c2)CSC[C@@H](C(=O)NCC(N)=O)NC(=O)[C@H](CC(C)C)NC(=O)[C@H]([C@@H](C)CC)NC(=O)[C@H](Cc2ccc(O)cc2)NC(=O)[C@@H]2CCCN2C(=O)[C@H](CC(N)=O)NC(=O)[C@H](CCCCN)NC(=O)[C@H](CO)NC(=O)[C@H](CO)NC(=O)CNC1=O
notes: Found by RaPID selection, then made by Fmoc-SPPS; also called lead cyclic peptide 1
- Kd [4]: 16 nM

Binder: mClBz-C(C10F9)LIWIGSSKNPYILCG (thioether N-15) [cyclic peptide 21, CP1-L1C-C10F9]
- binding result [2]: binds

Now from value to binder:

- binding result [2]: binds
Binder: mClBz-C(C6F5)LIWIGSSKNPYILCG (thioether N-15) [cyclic peptide 20, CP1-L1C-C6F5]

- binding result [2]: binds
Binder: {mClBz(3)}-C(7‑methoxycoumarin‑4‑ylmethyl)LIWIGSSKNPYILCG (bridge N-15; not fully specified (C-terminus, bridges)) [cyclic peptide 19, CP1-L1C-CH2C10H7O3]

— patent publication US20250099534A1 (TECHNION RESEARCH AND DEVELOPMENT FOUNDATION, published 2025)
